T1: Biotin-huCGRPaSA (human, not fully specified; biotin (position not given))
T1 construct: exact construct ('aSA') not explained; also called Biotin CGRPaSA; full-length (1-37) CGRP
T1 peptide: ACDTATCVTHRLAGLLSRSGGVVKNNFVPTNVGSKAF

B1: hu67 (antibody, V domains shown)
VH: QVQLVQSGSELKKPGASVKVSCKASGYTFTDFNMHWVRQAPGQGLEWMGYIYPYNGDVVYNQNFTNRFVLSVDSSSSTAYLQISSLKAEDTAVYYCAREGLGGYWGQGTLVTVSS
VL: DIVLTQSPASLAVSPGQRATITCKASQNIDYDGYAYLNWYQQKPGQPPKVLIYSVFNLESGVPARFSGSGSGTDFTLTINPVEADDTANYYCQQSNEFPYTFGQGTKLEIK
notes: 1F5 HC-4/1A2 LC2-2
B2: hu78 (antibody, V domains shown)
VH: QVQLVQSGSELKKPGASVKVSCKASGYTFTDFNMHWVRQAPGQGLEWMGYIYPYNGDVVYNQNFTNRFVLSVDSSSSTAYLQISSLKAEDTAVYYCAREGLGGYWGQGTLVTVSS
VL: DIQLTQSPSSLSASVGDRVTITCKASQNIDYGGYSYMNWYQQKPGKAPKVLIYSVFNLESGVPSRFSGSGSGTDFTLTISSLQPEDFATYYCQQSNEAPYTFGQGTKLEIK
notes: 1F5 HC-4/3H10 LC2-2
B3: hu72 (antibody, V domains shown)
VH: QVQLVQSGSELKKPGASVKVSCKASGYTFTDFNMHWVRQAPGQGLEWMGYIYPYNGDVVYNQNFTNRFVLSVDSSSSTAYLQISSLKAEDTAVYYCAREGLGGYWGQGTLVTVSS
VL: DIVLTQSPASLAVSPGQRATITCKASQNIDFDGYAYMNWYQQKPGQPPKVLIYSVFNLESGVPARFSGSGSGTDFTLTINPVEADDTANYYCQQSHEVPYTFGQGTKLEIK
notes: 1F5 HC-4/1F5 LC1-3
B4: hu69 (antibody, V domains shown)
VH: QVQLVQSGSELKKPGASVKVSCKASGYTFTDFNMHWVRQAPGQGLEWMGYIYPYNGDVVYNQNFTNRFVLSVDSSSSTAYLQISSLKAEDTAVYYCAREGLGGYWGQGTLVTVSS
VL: DIQLTQSPSFLSASVGDRVTITCKASQNIDYDGYAYLNWYQQKPGKAPKVLIYSVFNLESGVPSRFSGSGSGTEFTLTISSLQPEDFATYYCQQSNEFPYTFGQGTKLEIK
notes: 1F5 HC-4/1A2 LC2-4
B5: hu75 (antibody, V domains shown)
VH: QVQLVQSGSELKKPGASVKVSCKASGYTFTDFNMHWVRQAPGQGLEWMGYIYPYNGDVVYNQNFTNRFVLSVDSSSSTAYLQISSLKAEDTAVYYCAREGLGGYWGQGTLVTVSS
VL: DVQLTQSPSFLSASVGDRVTITCQASQNIDGNTYMNWYQQKPGKAPKVLIYSIFNLESGVPSRFSGSGSGTEFTLTISSLQPEDFATYYCQQSNDYPYTFGQGTKLEIK
notes: 1F5 HC-4/2B8 LC2-2
B6: hu68 (antibody, V domains shown)
VH: QVQLVQSGSELKKPGASVKVSCKASGYTFTDFNMHWVRQAPGQGLEWMGYIYPYNGDVVYNQNFTNRFVLSVDSSSSTAYLQISSLKAEDTAVYYCAREGLGGYWGQGTLVTVSS
VL: EIVLTQSPATLSLSPGERATLSCKASQNIDYDGYAYLNWYQQKPGQAPRVLIYSVFNLESGIPARFSGSGSGTDFTLTISSLEPEDFAVYYCQQSNEFPYTFGQGTKLEIK
notes: 1F5 HC-4/1A2 LC2-3
B7: hu70 (antibody, V domains shown)
VH: QVQLVQSGSELKKPGASVKVSCKASGYTFTDFNMHWVRQAPGQGLEWMGYIYPYNGDVVYNQNFTNRFVLSVDSSSSTAYLQISSLKAEDTAVYYCAREGLGGYWGQGTLVTVSS
VL: EIVLTQSPATLSLSPGERATLSCKASQNIDFDGYAYMNWYQQKPGQAPRVLIYSVFNLESGIPARFSGSGSGTDFTLTISSLEPEDFAVYYCQQSHEVPYTFGQGTKLEIK
notes: 1F5 HC-4/1F5 LC1-1
B8: hu21 (antibody, V domains shown)
VH: QVQLVQSGAEVKKPGASVKVSCKASGYTFTDYNMHWVRQAPGQRLEWMGYIFPYNGVAVYNRKFRSRVTLTVDTSSSTAYMELSSLRSEDTAVYYCAREGLGGYWGQGTLVTVSS
VL: DIVLTQSPDSLAVSLGERATINCKASQNIDFDGYAYMNWYQHKPGQPPKVLIYSVFNLESGVPDRFSGSGSGTDFTLTISSLQAEDVAVYYCQQSHEVPYTFGQGTKLEIK
notes: 1B2 HC-2/1F5 LC1-4
B9: hu47 (antibody, V domains shown)
VH: QVQLVQSGAEVKKPGASVKVSCKASGYTFTDFNMHWVRQAPGQRLEWMGYIYPYNGDVVYNQNFTNRVTLTVDTSSSTAYMELSSLRSEDTAVYYCAREGLGGYWGQGTLVTVSS
VL: DIVLTQSPDSLAVSLGERATINCKASQNIDFDGYAYMNWYQHKPGQPPKVLIYSVFNLESGVPDRFSGSGSGTDFTLTISSLQAEDVAVYYCQQSHEVPYTFGQGTKLEIK
notes: 1F5 HC-2/1F5 LC1-4
B10: hu29 (antibody, V domains shown)
VH: QVQLVQSGAEVKKPGASVKVSCKASGYTFIDFNMHWVRQAPGQRLEWMGYIYPYNGDVVYNQNFTNRVTLTVDTSSSTAYMELSSLRSEDTAVYYCAREGLGGYWGQGTLVTVSS
VL: EIVLTQSPATLSLSPGERATLSCKASQNIDYDGYAYLNWYQQKPGQAPRVLIYSVFNLESGIPARFSGSGSGTDFTLTISSLEPEDFAVYYCQQSNEFPYTFGQGTKLEIK
notes: 1F5 HC-1/1A2 LC2-3
B11: hu91 (antibody, V domains shown)
VH: QVQLVQSGAEVKKPGASVKVSCKASGYTFIDFNMHWVRQAPGQRLEWMGYIYPYNADVVYNQDFTNRVTLTVDTSSSTAYMELSSLRSEDTAVYYCAREGLGGYWGQGTLVTVSS
VL: DIQLTQSPSSLSASVGDRVTITCKASQNIDYGGYSYMNWYQQKPGKAPKVLIYSVFNLESGVPSRFSGSGSGTDFTLTISSLQPEDFATYYCQQSNEAPYTFGQGTKLEIK
notes: 1F5 HC-5/3H10 LC2-2
B12: hu51 (antibody, V domains shown)
VH: QVQLVQSGAEVKKPGASVKVSCKASGYTFTDFNMHWVRQAPGQRLEWMGYIYPYNGDVVYNQNFTNRVTLTVDTSSSTAYMELSSLRSEDTAVYYCAREGLGGYWGQGTLVTVSS
VL: DIVLTQSPDSLAVSLGERATINCKASQNIDYGGYSYMNWYQQKPGQPPKVLIYSVFNLESGVPDRFSGSGSGTDFTLTISSLQAEDVAVYYCQQSNEAPYTFGQGTKLEIK
notes: 1F5 HC-2/3H10 LC2-1
B13: hu39 (antibody, V domains shown)
VH: QVQLVQSGAEVKKPGASVKVSCKASGYTFIDFNMHWVRQAPGQRLEWMGYIYPYNGDVVYNQNFTNRVTLTVDTSSSTAYMELSSLRSEDTAVYYCAREGLGGYWGQGTLVTVSS
VL: DIQLTQSPSSLSASVGDRVTITCKASQNIDYGGYSYMNWYQQKPGKAPKVLIYSVFNLESGVPSRFSGSGSGTDFTLTISSLQPEDFATYYCQQSNEAPYTFGQGTKLEIK
notes: 1F5 HC-1/3H10 LC2-2
B14: hu94 (antibody, V domains shown)
VH: QVQLVQSGAEVKKPGASVKVSCKASGYTFTDYNMHWVRQAPGQRLEWMGYVYPYNGGSAYNQKFKSRVTLTVDTSSSTAYMELSSLRSEDTAVYYCAREGLGGYWGQGTLVTVSS
VL: EIVLTQSPATLSLSPGERATLSCKASQNIDYDGYAYLNWYQQKPGQAPRVLIYSVFNLESGIPARFSGSGSGTDFTLTISSLEPEDFAVYYCQQSNEFPYTFGQGTKLEIK
notes: 2A2 HC-1/1A2 LC2-3
B15: hu81 (antibody, V domains shown)
VH: QVQLVQSGAEVKKPGASVKVSCKASGYTFIDFNMHWVRQAPGQRLEWMGYIYPYNADVVYNQDFTNRVTLTVDTSSSTAYMELSSLRSEDTAVYYCAREGLGGYWGQGTLVTVSS
VL: EIVLTQSPATLSLSPGERATLSCKASQNIDYDGYAYLNWYQQKPGQAPRVLIYSVFNLESGIPARFSGSGSGTDFTLTISSLEPEDFAVYYCQQSNEFPYTFGQGTKLEIK
notes: 1F5 HC-5/1A2 LC2-3
B16: hu25 (antibody, V domains shown)
VH: QVQLVQSGAEVKKPGASVKVSCKASGYTFTDYNMHWVRQAPGQRLEWMGYIFPYNGVAVYNRKFRSRVTLTVDTSSSTAYMELSSLRSEDTAVYYCAREGLGGYWGQGTLVTVSS
VL: DIVLTQSPDSLAVSLGERATINCKASQNIDYGGYSYMNWYQQKPGQPPKVLIYSVFNLESGVPDRFSGSGSGTDFTLTISSLQAEDVAVYYCQQSNEAPYTFGQGTKLEIK
notes: 1B2 HC-2/3H10 LC2-1
B17: hu85 (antibody, V domains shown)
VH: QVQLVQSGAEVKKPGASVKVSCKASGYTFIDFNMHWVRQAPGQRLEWMGYIYPYNADVVYNQDFTNRVTLTVDTSSSTAYMELSSLRSEDTAVYYCAREGLGGYWGQGTLVTVSS
VL: DIVLTQSPASLAVSPGQRATITCKASQNIDFDGYAYMNWYQQKPGQPPKVLIYSVFNLESGVPARFSGSGSGTDFTLTINPVEADDTANYYCQQSHEVPYTFGQGTKLEIK
notes: 1F5 HC-5/1F5 LC1-3
B18: hu33 (antibody, V domains shown)
VH: QVQLVQSGAEVKKPGASVKVSCKASGYTFIDFNMHWVRQAPGQRLEWMGYIYPYNGDVVYNQNFTNRVTLTVDTSSSTAYMELSSLRSEDTAVYYCAREGLGGYWGQGTLVTVSS
VL: DIVLTQSPASLAVSPGQRATITCKASQNIDFDGYAYMNWYQQKPGQPPKVLIYSVFNLESGVPARFSGSGSGTDFTLTINPVEADDTANYYCQQSHEVPYTFGQGTKLEIK
notes: 1F5 HC-1/1F5 LC1-3
B19: hu26 (antibody, V domains shown)
VH: QVQLVQSGAEVKKPGASVKVSCKASGYTFTDYNMHWVRQAPGQRLEWMGYIFPYNGVAVYNRKFRSRVTLTVDTSSSTAYMELSSLRSEDTAVYYCAREGLGGYWGQGTLVTVSS
VL: DIQLTQSPSSLSASVGDRVTITCKASQNIDYGGYSYMNWYQQKPGKAPKVLIYSVFNLESGVPSRFSGSGSGTDFTLTISSLQPEDFATYYCQQSNEAPYTFGQGTKLEIK
notes: 1B2 HC-2/3H10 LC2-2
B20: hu52 (antibody, V domains shown)
VH: QVQLVQSGAEVKKPGASVKVSCKASGYTFTDFNMHWVRQAPGQRLEWMGYIYPYNGDVVYNQNFTNRVTLTVDTSSSTAYMELSSLRSEDTAVYYCAREGLGGYWGQGTLVTVSS
VL: DIQLTQSPSSLSASVGDRVTITCKASQNIDYGGYSYMNWYQQKPGKAPKVLIYSVFNLESGVPSRFSGSGSGTDFTLTISSLQPEDFATYYCQQSNEAPYTFGQGTKLEIK
notes: 1F5 HC-2/3H10 LC2-2
B21: hu73 (antibody, V domains shown)
VH: QVQLVQSGSELKKPGASVKVSCKASGYTFTDFNMHWVRQAPGQGLEWMGYIYPYNGDVVYNQNFTNRFVLSVDSSSSTAYLQISSLKAEDTAVYYCAREGLGGYWGQGTLVTVSS
VL: DIVLTQSPDSLAVSLGERATINCKASQNIDFDGYAYMNWYQHKPGQPPKVLIYSVFNLESGVPDRFSGSGSGTDFTLTISSLQAEDVAVYYCQQSHEVPYTFGQGTKLEIK
notes: 1F5 HC-4/1F5 LC1-4

Target: T1, Biotin-huCGRPaSA
Assay: ELISA, supernatant; relative to chimeric C245
How it was run: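 Plates coated with biotin-CGRPaSA at 1.0 μg/mL (90 min, 37°C) and blocked with 2% BSA. Humanized antibodies and chimeric C245 reference, 2.5-fold serial dilutions from 1000 ng/mL, bound 60 min at 37°C. Detection by HRP anti-human IgG (Fc), TMB 15 min, read at 450/620 nm.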

Point of comparison: B1, “Relative binding activity, %” value 115%. Against it:
- B2 — lower, 64%
- B3 — the same, 115%
- B4 — lower, 102%
- B5 — lower, 84%
- B6 — lower, 104%
- B7 — higher, 116%
- B8 — lower, 33%
- B9 — lower, 10%
- B10 — lower, 63%
- B11 — lower, 98%
- B12 — lower, 83%
- B13 — lower, 51%
- B14 — lower, 48%
- B15 — lower, 96%
- B16 — lower, 66%
- B17 — lower, 76%
- B18 — lower, 18%
- B19 — lower, 20%
- B20 — lower, 25%
- B21 — lower, 106%
